From PMC4352895, “Jarid2 Methylation via the PRC2 Complex Regulates H3K27me3 Deposition during Cell Differentiation” (Molecular Cell, 2015) come the findings set out here.

This test addresses ΔEed (Eed residues 77 to 441) (UniProt O75530). Kind of test: ITC; ΔEed (residues 77 to 441) with methylated peptides; conditions in the Supplemental Experimental Procedures.

Chain of ΔEed (Eed residues 77 to 441) (O75530 77-441, stated change not applied): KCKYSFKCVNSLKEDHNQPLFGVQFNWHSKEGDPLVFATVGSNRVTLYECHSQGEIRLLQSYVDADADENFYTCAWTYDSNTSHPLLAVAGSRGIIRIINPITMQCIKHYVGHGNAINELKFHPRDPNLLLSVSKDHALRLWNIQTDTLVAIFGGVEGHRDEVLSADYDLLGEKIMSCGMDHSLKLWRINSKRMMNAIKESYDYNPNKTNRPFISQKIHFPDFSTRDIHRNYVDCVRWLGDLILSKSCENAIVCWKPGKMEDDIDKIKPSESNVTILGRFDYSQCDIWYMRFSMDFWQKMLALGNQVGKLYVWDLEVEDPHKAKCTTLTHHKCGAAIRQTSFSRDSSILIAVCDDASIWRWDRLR

As a reminder, the Kd is a measure of binding affinity in units of concentration. Substance Jarid2-K116me3 peptide came in with a Kd of 3 µM and a fold affinity against the H3K27me3 peptide of 10 fold.
